Where a chain is given by its changes, count along the chain named. Numbers in names are those of the source.
What was measured:
[1] = target: T1, His-tagged recombinant murine HtrA1 protease domain (murine, UniProt Q9R118 156-367); test: SPR (BIACORE T100), single-cycle kinetics; biotinylated HtrA1-PD-His on streptavidin, Fab injected
T1 construct: His-tagged protease domain; also called muHtrA1-PD-His; muHtrA1-PD
From the text: (§1) To determine the binding affinity of anti-HtrA1 Fabs by single-cycle kinetics, (SPR) measurement with a BIACORE™ T100 instrument was used. Briefly, a series S sensor chip CM5 was activated with 1-ethyl-3-(3-dimethylamino-propyl)carbodiimide hydrochloride (EDC) and N-hydroxysuccinimide (NHS) reagents according to the supplier's instructions, and streptavidin (Pierce) was coupled to achieve approximately 2500 response units (RU), followed by blocking un-reacted groups with 1 M ethanolamine.
(§2) For kinetics measurements, biotinylated human or murine HtrA1-PD-His was first injected at 10 μl/min flow rate to capture approximately 150 RU at 3 different flow cells (FC), except for FC1 (which served as a reference), and then 5-fold serial dilutions of anti-HtrA1 Fab in HBS-P buffer (0.01M HEPES pH 7.4, 0.15 M NaCl, 0.005% surfactant P20) from low (0.48 nM) to high (300 nM) were injected (flow rate: 30 μl/min) one after the other in the same cycle with no regeneration between injections. The sensorgram was recorded and subject to reference and buffer subtraction before evaluating by BIACORE™ T100 Evaluation Software (version 2.0). Association rates (kₒₙ) and dissociation rates (koff) were calculated using a simple one-to-one Langmuir binding model. The equilibrium dissociation constant (KD) was calculated as the ratio koff/kₒₙ.

[2] = target: T2, His-tagged human HtrA1 protease domain (human, UniProt Q92743 161-367); test: as above
T2 construct: His-tagged protease domain; also called huHtrA1-PD-His; huHtrA1-PD
From the text: as §1, §2

[3] = target: T2, His-tagged human HtrA1 protease domain; test: BIACORE SPR, single-cycle kinetics; Fab analyte over captured human HtrA1
[4] = target: T2, His-tagged human HtrA1 protease domain; test: BIACORE T200 SPR; Fab analyte over huHtrA1-PD-His captured by anti-His antibody
Description: (§3) To determine the binding affinity of selected Fab variants for HtrA1, SPR measurement with a BIACORE™ T200 instrument was performed. Briefly, a series S sensor chip CM5 was activated with 1-EDC and NHS reagents according to the supplier's instructions, and anti-His antibody was coupled to achieve 200-300 response units (RU), then following by blocking un-reacted groups with 1 M ethanolamine. For kinetics measurements, approximately 5 nM of huHtrA1-PD-His was first injected at 10 μl/min flow rate to capture approximately 100 RU at 2 different flow cells (FC), except for FC1 (which served as a reference). Next, 5-fold serial dilutions of Fab in HBS-P buffer (0.01M HEPES pH 7.4, 0.15M NaCl, 0.005% surfactant P20) from low (0.8 nM) to high (50 nM) were injected (flow rate: 30 μl/min). The binding responses on HtrA1 were corrected by subtracting of RU from a blank flow cell. The sensorgram was recorded and subject to reference and buffer subtraction before evaluating by BIACORE® T200 Evaluation Software (version 2.0). Association rates (kₒₙ) and dissociation rates (koff) were calculated using a simple one-to-one Langmuir binding model. The equilibrium dissociation constant (KD) was calculated as the ratio of koff/kₒₙ.

[5] = target: T2, His-tagged human HtrA1 protease domain; test: BIACORE SPR, Fab analyte, Human HtrA1-PD (N=2)
[6] = target: T2, His-tagged human HtrA1 protease domain; test: SPR (BIACORE T200), huHtrA1-PD-His captured by anti-His, Fab injected
Description: These combination mutants included both a variant light chain and a variant heavy chain. BIACORE™ kinetic analysis was performed (as described below in Section C) using the combination mutants.
as §3

[7] = target: T2, His-tagged human HtrA1 protease domain; test: BIACORE SPR, single-cycle kinetics; Fab analyte over captured human HtrA1; remark: listed apart in the source
[8] = target: T1, His-tagged recombinant murine HtrA1 …; test: SPR (BIACORE), Fab
From the text: (§4) To address W91 oxidation in HVR-L3, 2 variants (LC-W91Y and LC-W91L) were generated and produced as Fabs for BIACORE™ SPR binding analysis.
as §1, §2

[9] = target: T2, His-tagged human HtrA1 protease domain; test: SPR (BIACORE), Fab
From the text: as §4, §1, §2

T2 sequence (Q92743 other isoform, or with tags, fused parts or gaps limits assumed): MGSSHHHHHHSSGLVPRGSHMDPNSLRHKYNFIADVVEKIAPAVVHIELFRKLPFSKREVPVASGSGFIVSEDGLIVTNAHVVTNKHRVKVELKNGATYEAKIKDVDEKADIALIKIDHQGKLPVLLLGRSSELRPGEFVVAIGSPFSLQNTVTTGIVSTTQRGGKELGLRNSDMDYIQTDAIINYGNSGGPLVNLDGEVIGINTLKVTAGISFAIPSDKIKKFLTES

B1: m15H6 Fab (Fab, V domains shown)
VH: QVQLQQSGAELVRPGASVTLSCKASGYTFTDSEMHWVKQTPVHGLEWIGGVDPETDGAAYNQKFKGKATLTADKSSSTAYMELRSLTSEDSAVYYCTRGYDYDYALDYWGQGTSVTVSS
VL: QIVLSQSPAILSASPGEKVTMTCRASSSVNFIHWYQQKPGSSPKPWISATSNLASGVPPRFSGSGSGTSYSLTISRVEAEDAATYYCQQWSSNPWTFGGGTKLEIK
notes: Tested as Fab; also called ml5H6 Fab; m15H6 in Fab format
Kd [1]: 0.3 nM | koff [1]: 0.000163 s⁻¹ | kon [1]: 539000 M⁻¹ s⁻¹ | Kd [2]: 0.31 nM | koff [2]: 0.000155 s⁻¹ | kon [2]: 506000 M⁻¹ s⁻¹

B2: m19B12 Fab (Fab, V domains shown)
VH: EVKLVESGGGLVEPGGSLKLACVASGFTFSSYIMSWVRQTPEKRLEWVAYISNGGGTTYYSDTIKGRFTISRDNAKNTLYLQMSTLKSEDTAIYFCARQNFRSDGSSMDYWGQGTAVTVSS
VL: NIVVTQSPASLAVSLGQRATISCRASESVDSYGKSFMHWYQQKPGQPPKLLIYLASKLESGVPARFSGSGSRTDFTLTIDPVEADDAATYYCQQNNEDPYTFGGGTKLEIK
notes: Tested in Fab format
Kd [1]: 6.43 nM | koff [1]: 0.00117 s⁻¹ | kon [1]: 182000 M⁻¹ s⁻¹ | Kd [2]: 23.8 nM | koff [2]: 0.00228 s⁻¹ | kon [2]: 96000 M⁻¹ s⁻¹

B3: AG (Fab, V domains shown)
VH: EVQLVQSGAEVKKPGASVKVSCKASGYTFTDSEMHWVRQAPGQGLEWIGGVDPETAGAAYNQKFKGRATITRDTSTSTAYLELSSLRSEDTAVYYCTRGYDYDYALDYWGQGTLVTVSS
VL: DIQMTQSPSSLSASVGDRVTITCRASSSVNFIHWYQQKPGKAPKPLISATSNLASGVPSRFSGSGSGTDFTLTISSLQPEDFATYYCQQWSSNPWTFGQGTKVEIK
notes: single member of the group m42; also called h15H6.v2 HC-D55A HC-G56 Fab
Kd [3]: 0.76 nM | koff [3]: 0.00035 s⁻¹ | kon [3]: 460000 M⁻¹ s⁻¹

B4: APEG.LC37.HC13 (Fab, V domains shown)
VH: B3 VH with T28K, T30K, A56E
VL: B3 VL with N30E, S91Y, N93A
notes: single member of the group m82
Kd [4]: 0.095 nM | koff [4]: 4.09e-05 s⁻¹ | kon [4]: 431000 M⁻¹ s⁻¹

B5: APEG.LC7.HC1 (Fab, V domains shown)
VH: B3 VH with T30K, A56E
VL: B3 VL with S91Y, N93A
Kd [4]: 0.137 nM | koff [4]: 2.75e-05 s⁻¹ | kon [4]: 200000 M⁻¹ s⁻¹

B6: h15H6.v2 HC-D55E HC-G56 Fab (Fab, V domains shown)
VH: B3 VH with A56E
VL: B3 VL
notes: Produced as Fab; also called EG
Kd [3]: 0.55 nM | koff [3]: 0.00021 s⁻¹ | kon [3]: 380000 M⁻¹ s⁻¹

B7: SG (Fab, V domains shown)
VH: B3 VH with A56S
VL: B3 VL
notes: single member of the group m42; also called h15H6.v2 HC-D55S HC-G56 Fab
Kd [3]: 0.78 nM | koff [3]: 0.00032 s⁻¹ | kon [3]: 410000 M⁻¹ s⁻¹

B8: APEG.LC7.HC3 (Fab, V domains shown)
VH: B3 VH with T28K, A56E
VL: B3 VL with S91Y, N93A
Kd [4]: 0.332 nM | koff [4]: 7.93e-05 s⁻¹ | kon [4]: 239000 M⁻¹ s⁻¹

B9: APEG.LC37.HC23 (Fab, V domains shown)
VH: B3 VH with T28K, T30R, A56E
VL: B3 VL with N30E, S91Y, N93A
notes: as for B4
Kd [4]: 0.146 nM | koff [4]: 6.41e-05 s⁻¹ | kon [4]: 438000 M⁻¹ s⁻¹

B10: APEG.LC7.HC2 (Fab, V domains shown)
VH: B3 VH with T30R, A56E
VL: B3 VL with S91Y, N93A
Kd [4]: 0.309 nM | koff [4]: 6.6e-05 s⁻¹ | kon [4]: 213000 M⁻¹ s⁻¹

B11: SP_EG (Fab, V domains shown)
VH: B3 VH with A56E
VL: B3 VL with N93S
notes: also called h15H6.v2 LC-N94S LC-P95 HC-D55E HC-G56 Fab; copies: 1 + 1
Kd [5]: 0.8 nM | koff [5]: 0.00029 s⁻¹ | kon [5]: 350000 M⁻¹ s⁻¹

B12: combination mutant LC3.HC1 Fab (Fab, V domains shown)
VH: B3 VH with T30K, A56D
VL: B3 VL with N30E
notes: Fab
Kd [6]: 0.0889 nM | koff [6]: 7.95e-05 s⁻¹ | kon [6]: 885000 M⁻¹ s⁻¹ | Kd [4]: 0.0898 nM

B13: h15H6.v2 LC-N94A LC-P95 Fab (Fab, V domains shown)
VH: B3 VH with A56D
VL: B3 VL with N93A
notes: Produced as Fab; also called AP
Kd [7]: 0.31 nM | koff [7]: 0.00014 s⁻¹ | kon [7]: 450000 M⁻¹ s⁻¹

B14: APEG.LC3.HC2 (Fab, V domains shown)
VH: B3 VH with T30R, A56E
VL: B3 VL with N30E, N93A
Kd [4]: 0.117 nM | koff [4]: 4.08e-05 s⁻¹ | kon [4]: 350000 M⁻¹ s⁻¹

B15: QP_EG (Fab, V domains shown)
VH: B3 VH with A56E
VL: B3 VL with N93Q
notes: also called h15H6.v2 LC-N94Q LC-P95 HC-D55E HC-G56 Fab; copies: 1 + 1
Kd [5]: 0.8 nM | koff [5]: 0.00029 s⁻¹ | kon [5]: 380000 M⁻¹ s⁻¹

B16: EP_EG (Fab, V domains shown)
VH: B3 VH with A56E
VL: B3 VL with N93E
notes: also called h15H6.v2 LC-N94E LC-P95 HC-D55E HC-G56 Fab; copies: 1 + 1
Kd [5]: 0.4 nM | koff [5]: 0.00018 s⁻¹ | kon [5]: 450000 M⁻¹ s⁻¹

B17: h15H6.v2 LC-W91L Fab (Fab, V domains shown)
VH: B3 VH with A56D
VL: B3 VL with W90L
notes: Produced as Fab
Kd [8]: 7.6 nM | koff [8]: 0.00091 s⁻¹ | kon [8]: 120000 M⁻¹ s⁻¹ | Kd [9]: 10.7 nM | koff [9]: 0.0016 s⁻¹ | kon [9]: 150000 M⁻¹ s⁻¹

B18: DA (Fab, V domains shown)
VH: B3 VH with A56D, G57A
VL: B3 VL
notes: single member of the group m42; also called h15H6.v2 HC-D55 HC-G56A Fab
Kd [3]: 0.84 nM | koff [3]: 0.00027 s⁻¹ | kon [3]: 320000 M⁻¹ s⁻¹

B19: APEG.LC347.HC13 (Fab, V domains shown)
VH: B3 VH with T28K, T30K, A56E
VL: B3 VL with N30E, N52H, S91Y, N93A
notes: as for B4
Kd [4]: 0.131 nM | koff [4]: 4.88e-05 s⁻¹ | kon [4]: 371000 M⁻¹ s⁻¹

B20: APEG.LC347.HC23 (Fab, V domains shown)
VH: B3 VH with T28K, T30R, A56E
VL: B3 VL with N30E, N52H, S91Y, N93A
notes: as for B4
Kd [4]: 0.163 nM | koff [4]: 6.47e-05 s⁻¹ | kon [4]: 397000 M⁻¹ s⁻¹

B21: h15H6.v2 LC-N94E LC-P95 Fab (Fab, V domains shown)
VH: B3 VH with A56D
VL: B3 VL with N93E
notes: Produced as Fab; also called EP
Kd [7]: 0.33 nM | koff [7]: 0.00017 s⁻¹ | kon [7]: 520000 M⁻¹ s⁻¹
